Data: publication PMC12259950

Target: 4-1BB receptor (human) (UniProt Q07011)
Assay: ELISA; antigen (4-1BB 0.5 µg/mL in carbonate buffer; BSA or S100P for cross-reactivity) adsorbed on the plate, 37 °C 1 h; blocked with 1% milk powder; culture fluid with VHH mixed 1:1 with 2% milk powder, 1 h 37 °C; detected by 9E10 anti-myc and an HRP conjugate, TMB, 450 nm; 2 technical …

Sequence of UniProt Q07011 (Q07011 24-255): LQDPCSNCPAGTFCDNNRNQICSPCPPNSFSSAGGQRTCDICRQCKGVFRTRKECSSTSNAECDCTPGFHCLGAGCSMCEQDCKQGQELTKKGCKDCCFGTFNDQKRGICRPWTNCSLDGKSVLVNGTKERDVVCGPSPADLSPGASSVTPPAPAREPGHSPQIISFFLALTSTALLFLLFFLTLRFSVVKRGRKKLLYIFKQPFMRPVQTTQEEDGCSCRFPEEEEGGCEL

B1: VHH_11 (VHH)
VHH: QVQLVESGGGLVQPGGSLRLSCAASGYSYYYYSMGWFRQAPGQGTEFVAAISSYYYSSYYADSVKGRFTISRDNSKNTLYLQMNSLRAEDTAVYYCAASYYSGSYYSGFDYWGQGTQVTVS
Binder B1 has an ELISA signal intensity, fold lower than the positive control of 10 fold.
